From paper PMC5758902
Residue numbers refer to the chain shown, from its start.

T1: NgoS (MutS) (Neisseria gonorrhoeae, UniProt Q5F5J4 1-814)
T1 sequence: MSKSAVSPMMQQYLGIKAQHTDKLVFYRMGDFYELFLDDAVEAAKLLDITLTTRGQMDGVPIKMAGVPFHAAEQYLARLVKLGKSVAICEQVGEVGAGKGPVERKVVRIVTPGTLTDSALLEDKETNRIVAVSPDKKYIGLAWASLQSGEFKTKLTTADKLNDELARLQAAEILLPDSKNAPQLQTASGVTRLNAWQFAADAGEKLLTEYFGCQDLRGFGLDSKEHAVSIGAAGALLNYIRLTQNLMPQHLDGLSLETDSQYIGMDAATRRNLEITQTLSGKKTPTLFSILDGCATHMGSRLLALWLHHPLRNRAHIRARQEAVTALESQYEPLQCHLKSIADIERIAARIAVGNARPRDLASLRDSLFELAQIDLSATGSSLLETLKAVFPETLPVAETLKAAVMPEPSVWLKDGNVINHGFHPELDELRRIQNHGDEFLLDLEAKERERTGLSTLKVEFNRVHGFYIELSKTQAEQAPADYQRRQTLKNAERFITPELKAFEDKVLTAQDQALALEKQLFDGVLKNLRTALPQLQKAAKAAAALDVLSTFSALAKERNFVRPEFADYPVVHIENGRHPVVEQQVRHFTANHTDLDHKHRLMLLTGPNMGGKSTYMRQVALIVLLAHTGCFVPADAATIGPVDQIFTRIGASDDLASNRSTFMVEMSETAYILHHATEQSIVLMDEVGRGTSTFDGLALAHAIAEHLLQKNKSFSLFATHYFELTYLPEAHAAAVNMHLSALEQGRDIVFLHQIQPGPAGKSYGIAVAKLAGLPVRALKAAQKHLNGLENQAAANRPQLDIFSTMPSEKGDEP

T2: NgoS E687A (Neisseria gonorrhoeae, UniProt Q5F5J4 1-814, E687A)
T2 sequence: T1 sequence with E687A

B1: 30mer homoduplex (dsDNA)
DNA 1: AGCTGCCAGGCACCAGTGTCAGCGTCCTAT
DNA 2: ATAGGACGCTGACACTGGTGCCTGGCAGCT
B2: 31mer G:T heteroduplex (dsDNA)
DNA 1: GCGATGTTGCTGACGCTGGTGCCTGGCAGCT
DNA 2: AGCTGCCAGGCACCAGTGTCAGCAACATCGC
B3: 30mer G:T heteroduplex (dsDNA)
DNA 1: B1 DNA 1
DNA 2: B1 DNA 2 with C22T

Experiments:
[1] = target: T1, NgoS (MutS); experiment: DLS
[2] = target: T2, NgoS E687A; experiment: fluorescence anisotropy
[3] = target: T1, NgoS (MutS); experiment: fluorescence anisotropy

| Binder | binding result [1] | binding result [2] | binding result [3] |
| --- | --- | --- | --- |
| B1 | binds |  |  |
| B2 |  | binds | binds |
| B3 | binds |  |  |
